Test results as given in patent US20240247080A1, “GLP1/GIP/NPY2 RECEPTOR TRIPLE AGONISTS” (Boehringer Ingelheim International GmbH, priority 2022, published 2024).
Positions count from the first letter of the chain named. Starred links: 1 amine or outer side, 2 acyl side, 3 side chain; linkers in the order of their positions; H or OH if unused. Non-standard residues stand in square brackets, D forms with d. Groups on a side chain read outwards from the residue. No end group written: not given here. *: point of attachment. C20 diacid = O=C(O)CCCCCCCCCCCCCCCCCCC(=O)*; γGlu = O=C(O)[C@H](CCC(=O)[*:2])N[*:1]; εLys = N[C@@H](CCCCN[*:1])C(=O)[*:2]; AEEA = NCCOCCOCC(=O)O; Aib = CC(C)(N)C(=O)O

T1: human GIP receptor (human, UniProt P48546 22-466)
T1 sequence (looked up): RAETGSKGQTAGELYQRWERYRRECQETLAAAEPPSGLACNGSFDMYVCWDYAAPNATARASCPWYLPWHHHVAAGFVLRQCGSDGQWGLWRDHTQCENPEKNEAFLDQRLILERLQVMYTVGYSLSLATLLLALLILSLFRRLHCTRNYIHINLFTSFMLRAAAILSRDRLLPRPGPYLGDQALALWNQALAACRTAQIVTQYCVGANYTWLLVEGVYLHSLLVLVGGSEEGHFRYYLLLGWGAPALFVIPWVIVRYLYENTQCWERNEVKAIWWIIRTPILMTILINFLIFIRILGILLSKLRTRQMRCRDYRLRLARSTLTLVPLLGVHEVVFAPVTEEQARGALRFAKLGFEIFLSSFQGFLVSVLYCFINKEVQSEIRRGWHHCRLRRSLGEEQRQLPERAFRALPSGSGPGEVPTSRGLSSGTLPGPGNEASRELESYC

T2: human neuropeptide Y2 receptor (human, UniProt P49146 1-381)
T2 sequence (looked up): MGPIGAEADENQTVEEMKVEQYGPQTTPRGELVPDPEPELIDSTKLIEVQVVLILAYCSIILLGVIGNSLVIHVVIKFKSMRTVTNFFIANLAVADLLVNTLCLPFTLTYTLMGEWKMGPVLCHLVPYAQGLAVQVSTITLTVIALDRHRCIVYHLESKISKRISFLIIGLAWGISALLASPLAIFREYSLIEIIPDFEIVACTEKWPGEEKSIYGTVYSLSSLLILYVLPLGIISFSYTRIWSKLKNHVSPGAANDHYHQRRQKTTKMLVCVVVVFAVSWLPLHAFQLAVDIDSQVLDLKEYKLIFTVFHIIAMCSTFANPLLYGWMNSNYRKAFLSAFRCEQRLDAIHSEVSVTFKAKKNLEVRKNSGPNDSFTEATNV

B1: Compound 100 (peptide)
peptide: Y[Aib]EGTFTSDYSI[Aib]LEEQAQ[Aib]AFVEWLIKGGPSSGASLRHYYNWLTRQRY-NH2
modifications: not fully specified (residue 28)
B2: Compound 98 (peptide)
peptide: YXEGTFTSDYSIXLEKQAQXAFVEWLIKGGPSSAASLRHYYNWLTRQRY
modifications: Aib at 2, 13, 20; K28 side chain: C20DA-gGlu-gGlu-gGlu-gGlu-gGlu-gGlu-eLys; C-terminal NH2
B3: Compound 99 (peptide)
peptide: B2 peptide with K16G, A34G
modifications: Aib at 2, 13, 20; K28 side chain: C20DA-gGlu-gGlu-gGlu-gGlu-gGlu-gGlu-eLys; C-terminal NH2
B4: Compound 119 (peptide)
peptide: B2 peptide with A34G, H39X
modifications: Aib at 2, 13, 20; Tle at 39; K28 side chain: C20DA-gGlu-gGlu-gGlu-gGlu-gGlu-gGlu-eLys; C-terminal NH2
B5: Compound 111 (peptide)
peptide: B2 peptide with E24Q, S33E, A34P
modifications: Aib at 2, 13, 20; K28 side chain: C20DA-gGlu-gGlu-gGlu-gGlu-gGlu-OEG-OEG; C-terminal NH2
B6: Compound 103 (peptide)
peptide: B2 peptide with A34G, L37X
modifications: Aib at 2, 13, 20; Tle at 37; K28 side chain: C20DA-gGlu-gGlu-gGlu-gGlu-gGlu-gGlu-eLys; C-terminal NH2
B7: Compound 104 (peptide)
peptide: B2 peptide with X13L, A34G
modifications: Aib at 2, 20; K28 side chain: C20DA-gGlu-Glu-gGlu-gGlu-gGlu-gGlu-eLys; C-terminal NH2
B8: Compound 117 (peptide)
peptide: B2 peptide with A34G, L37V
modifications: Aib at 2, 13, 20; K28 side chain: C20DA-gGlu-gGlu-gGlu-gGlu-gGlu-gGlu-eLys; C-terminal NH2
B9: Compound 116 (peptide)
peptide: B2 peptide with K16E, A34G
modifications: Aib at 2, 13, 20; K28 side chain: C20DA-gGlu-gGlu-gGlu-gGlu-gGlu-gGlu-eLys; C-terminal NH2
B10: Compound 115 (peptide)
peptide: B2 peptide with E24Q, S33E, A34G
modifications: Aib at 2, 13, 20; NMeQ at 47; K28 side chain: C20DA-gGlu-gGlu-gGlu-gGlu-gGlu-gGlu-eLys; C-terminal NH2
B11: Compound 118 (peptide)
peptide: B2 peptide with A34G, L37X
modifications: Aib at 2, 13, 20, 37; K28 side chain: C20DA-gGlu-gGlu-gGlu-gGlu-gGlu-gGlu-eLys; C-terminal NH2
B12: Compound 106 (peptide)
peptide: B2 peptide with A34G, Y41I
modifications: Aib at 2, 13, 20; K28 side chain: C20DA-gGlu-gGlu-gGlu-gGlu-gGlu-gGlu-eLys; C-terminal NH2
B13: Compound 120 (peptide)
peptide: B2 peptide with A34P
modifications: Aib at 2, 13, 20; K28 side chain: C20DA-gGlu-gGlu-gGlu-gGlu-gGlu-OEG-OEG; C-terminal NH2
B14: Compound 102 (peptide)
peptide: B2 peptide with K16A, A34G
modifications: Aib at 2, 13, 20; K28 side chain: C20DA-gGlu-gGlu-gGlu-gGlu-gGlu-gGlu-eLys; C-terminal NH2
B15: Compound 107 (peptide)
peptide: B2 peptide with A34G, A35L
modifications: Aib at 2, 13, 20; K28 side chain: C20DA-gGlu-gGlu-gGlu-gGlu-gGlu-gGlu-eLys; C-terminal NH2
B16: Compound 114 (peptide)
peptide: B2 peptide with E24Q, S33E, A34G, A35V
modifications: Aib at 2, 13, 20; K28 side chain: C20DA-gGlu-gGlu-gGlu-gGlu-gGlu-gGlu-eLys; C-terminal NH2
B17: Compound 112 (peptide)
peptide: B2 peptide with E24Q, A34G
modifications: Aib at 2, 13, 20; K28 side chain: C20DA-gGlu-gGlu-gGlu-gGlu-gGlu-OEG-OEG; C-terminal NH2
B18: Compound 113 (peptide)
peptide: Y[Aib]EGTFTSDLSI[Aib]LEKQAQ[Aib]AFVQWLIKGGPSEGASLRHYYNWLTRQRY-NH2
modifications: not fully specified (residue 28)
B19: Compound 101 (peptide)
peptide: Y[Aib]EGTFTSDYSI[Aib]LEKQAQ[Aib]AFVQWLIKGGPSEPASLRHYYNWLTRQRY-NH2
modifications: not fully specified (residue 28)
B20: Compound 110 (peptide)
peptide: Y[Aib]EGTFTSDYSI[Aib]LEEQAQ[Aib]AFVEWLIK([εLys-AEEA-γGlu-γGlu-γGlu-γGlu-γGlu-C20 diacid])GGPSSGASLRHYYNWLTRQRY-NH2
B21: Compound 109 (peptide)
peptide: Y[Aib]EGTFTSDYSI[Aib]LEKQAQ[Aib]AFVEWLLKGGPSSGASLRHYYNWLTRQRY-NH2
modifications: not fully specified (residue 28)
B22: Compound 108 (peptide)
peptide: Y[Aib]EGTFTSDYSI[Aib]LEKQAQ[Aib]AFVQWLIKGGPEEGASLRHYYNWLTRQRY-NH2
modifications: not fully specified (residue 28)
B23: Compound 105 (peptide)
peptide: Y[Aib]EGTFTSDYSI[Aib]LEEQAQ[Aib]AFVEWLIKGGPSSGASLRHYYNWLTRQRY-NH2
modifications: not fully specified (residue 28)

Each binder was assayed against human GLP-1 receptor (human, UniProt P43220 24-463) (assay: cell-based or functional assay).

Row | Binder | EC50 CreLuc hGLP1R 0.5% hP [nM] | EC50 CreLuc hGLP1R 100% hP [nM]
1 | B1 | 0.12 | 2.21
2 | B2 | 0.31 | 8.22
3 | B3 | 0.41 | 6.72
4 | B4 | 0.26 | 4.46
5 | B5 | 0.12 | 5.32
6 | B6 | 0.13 | 3.19
7 | B7 | 0.09 | 2.06
8 | B8 | 0.13 | 1.8
9 | B9 | 0.14 | 2.48
10 | B10 | 0.12 | 3.45
11 | B11 | 0.05 | 0.84
12 | B12 | 0.14 | 3.56
13 | B13 | 0.11 | 4.65
14 | B14 | 0.33 | 3.48
15 | B15 | 0.13 | 1.88
16 | B16 | 0.15 | 5.56
17 | B17 | 0.06 | 1.7
18 | B18 | 0.19 | 3.72
19 | B19 | 0.1 | 2.5
20 | B20 | 0.15 | 1.53
21 | B21 | 0.28 | 3.32
22 | B22 | 0.4 | 6.16
23 | B23 | 0.14 | 1.66

These binders were tested against T1, human GIP receptor (assay: cell-based or functional assay).

Row | Binder | EC50 CreLuc hGIPR 0.5% hP [nM] | EC50 CreLuc hGIPR 100% hP [nM]
24 | B1 | 0.1 | 0.87
25 | B2 | 0.44 | 3.41
26 | B3 | 0.91 | 8.52
27 | B4 | 0.63 | 4.31
28 | B5 | 0.55 | 1.96
29 | B6 | 0.26 | 1.73
30 | B7 | 0.06 | 0.6
31 | B8 | 0.14 | 1.18
32 | B9 | 0.43 | 3.01
33 | B10 | 0.51 | 1.89
34 | B11 | 0.06 | 0.55
35 | B12 | 0.26 | 2.17
36 | B13 | 0.34 | 1.44
37 | B14 | 0.98 | 4.01
38 | B15 | 0.27 | 0.99
39 | B16 | 0.27 | 2.34
40 | B17 | 0.19 | 0.83
41 | B18 | 0.56 | 3.84
42 | B19 | 0.15 | 1.43
43 | B20 | 0.15 | 1.14
44 | B21 | 0.09 | 0.64
45 | B22 | 0.3 | 2.14
46 | B23 | 0.2 | 0.87

These binders were tested against T2, human neuropeptide Y2 receptor (assay: cell-based or functional assay).

Row | Binder | EC50 CreLuc hNPY2R 0.5% hP [nM] | EC50 CreLuc hNPY2R 100% hP [nM]
47 | B1 | 11.2 | 48
48 | B2 | 15.1 | 64.2
49 | B3 | 16.8 | 85.9
50 | B4 | 23.1 | 80.1
51 | B5 | 13.4 | 36.8
52 | B6 | 12 | 50.7
53 | B7 | 13.4 | 50.7
54 | B8 | 6.81 | 24.6
55 | B9 | 13.5 | 85.7
56 | B10 | 7.8 | 30.6
57 | B11 | 6.2 | 26.2
58 | B12 | 20.5 | 74.2
59 | B13 | 10.7 | 39.2
60 | B14 | 24.9 | 80.7
61 | B15 | 16.7 | 58.5
62 | B16 | 7.73 | 44.8
63 | B17 | 8.05 | 27.6
64 | B18 | 19.5 | 49.9
65 | B19 | 12.1 | 26.5
66 | B20 | 17.5 | 42.5
67 | B21 | 10.8 | 52.2
68 | B22 | 14.8 | 57.4
69 | B23 | 10.4 | 69
